In patent US20260176319A1 (KALLYOPE, published 2026):
Starred links: 1 amine or outer side, 2 acyl side, 3 side chain; linkers in the order of their positions; H or OH if unused. Non-standard residues stand in square brackets, D forms with d. *: point of attachment. Trp(7-Me) = Cc1cccc2c(C[C@H](N)C(=O)O)c[nH]c12; C20 diacid = O=C(O)CCCCCCCCCCCCCCCCCCC(=O)*; d(γGlu) = O=C(O)[C@@H](CCC(=O)[*:2])N[*:1]; γGlu = O=C(O)[C@H](CCC(=O)[*:2])N[*:1]; NMeH = CN[C@@H](Cc1c[nH]cn1)C(=O)O; Palmitoyl = CCCCCCCCCCCCCCCC(=O)*; 2CE‑PEG‑TMEA = not defined here; 5CTMPA = not defined here; Nle = CCCC[C@H](N)C(=O)O; Dap = NC[C@H](N)C(=O)O; AEEA = NCCOCCOCC(=O)O; βAla = NCCC(=O)O; Sar = CNCC(=O)O

B1: Peptide 248 (peptide)
peptide: {C20 diacid}-[γGlu][γGlu][AEEA][AEEA]E[dS]EH[Trp(7-Me)]AV[βAla]HL[Nle]-NH2
SMILES: CCCC[C@H](NC(=O)[C@H](CC(C)C)NC(=O)[C@H](Cc1c[nH]cn1)NC(=O)CCNC(=O)[C@@H](NC(=O)[C@H](C)NC(=O)[C@H](Cc1c[nH]c2c(C)cccc12)NC(=O)[C@H](Cc1c[nH]cn1)NC(=O)[C@H](CCC(=O)O)NC(=O)[C@@H](CO)NC(=O)[C@H](CCC(=O)O)NC(=O)COCCOCCNC(=O)COCCOCCNC(=O)CC[C@H](NC(=O)CC[C@H](NC(=O)CCCCCCCCCCCCCCCCCCC(=O)O)C(=O)O)C(=O)O)C(C)C)C(N)=O
B2: Peptide 257 (peptide)
peptide: {C20 diacid}-[γGlu][γGlu][AEEA][AEEA]ESQH[Trp(7-Me)]AV[βAla]HL[Nle]-NH2
SMILES: CCCC[C@H](NC(=O)[C@H](CC(C)C)NC(=O)[C@H](Cc1c[nH]cn1)NC(=O)CCNC(=O)[C@@H](NC(=O)[C@H](C)NC(=O)[C@H](Cc1c[nH]c2c(C)cccc12)NC(=O)[C@H](Cc1c[nH]cn1)NC(=O)[C@H](CCC(N)=O)NC(=O)[C@H](CO)NC(=O)[C@H](CCC(=O)O)NC(=O)COCCOCCNC(=O)COCCOCCNC(=O)CC[C@H](NC(=O)CC[C@H](NC(=O)CCCCCCCCCCCCCCCCCCC(=O)O)C(=O)O)C(=O)O)C(C)C)C(N)=O
B3: Peptide 267 (peptide)
peptide: {C20 diacid}-[γGlu][AEEA][AEEA]GQHWAV[βAla][NMeH]L[Nle]-NH2
SMILES: CCCC[C@H](NC(=O)[C@H](CC(C)C)NC(=O)[C@H](Cc1c[nH]cn1)N(C)C(=O)CCNC(=O)[C@@H](NC(=O)[C@H](C)NC(=O)[C@H](Cc1c[nH]c2ccccc12)NC(=O)[C@H](Cc1c[nH]cn1)NC(=O)[C@H](CCC(N)=O)NC(=O)CNC(=O)COCCOCCNC(=O)COCCOCCNC(=O)CC[C@H](NC(=O)CCCCCCCCCCCCCCCCCCC(=O)O)C(=O)O)C(C)C)C(N)=O
B4: Peptide 266 (peptide)
peptide: {C20 diacid}-[γGlu][AEEA][AEEA]GEGEHWAV[βAla]HL[Nle]-NH2
SMILES: CCCC[C@H](NC(=O)[C@H](CC(C)C)NC(=O)[C@H](Cc1c[nH]cn1)NC(=O)CCNC(=O)[C@@H](NC(=O)[C@H](C)NC(=O)[C@H](Cc1c[nH]c2ccccc12)NC(=O)[C@H](Cc1c[nH]cn1)NC(=O)[C@H](CCC(=O)O)NC(=O)CNC(=O)[C@H](CCC(=O)O)NC(=O)CNC(=O)COCCOCCNC(=O)COCCOCCNC(=O)CC[C@H](NC(=O)CCCCCCCCCCCCCCCCCCC(=O)O)C(=O)O)C(C)C)C(N)=O
B5: Peptide 16 (peptide)
peptide: Palmitoyl-[d(γGlu)][AEEA][AEEA]GEHWAV[dA]HL[Nle]-NH2
SMILES: CCCCCCCCCCCCCCCC(=O)N[C@H](CCC(=O)NCCOCCOCC(=O)NCCOCCOCC(=O)NCC(=O)N[C@@H](CCC(=O)O)C(=O)N[C@@H](Cc1c[nH]cn1)C(=O)N[C@@H](Cc1c[nH]c2ccccc12)C(=O)N[C@@H](C)C(=O)N[C@H](C(=O)N[C@H](C)C(=O)N[C@@H](Cc1c[nH]cn1)C(=O)N[C@@H](CC(C)C)C(=O)N[C@@H](CCCC)C(N)=O)C(C)C)C(=O)O
B6: Peptide 251 (peptide)
peptide: {C20 diacid}-[γGlu][γGlu][AEEA][AEEA]GQHWAV[βAla]HL[Nle]-NH2
SMILES: CCCC[C@H](NC(=O)[C@H](CC(C)C)NC(=O)[C@H](Cc1c[nH]cn1)NC(=O)CCNC(=O)[C@@H](NC(=O)[C@H](C)NC(=O)[C@H](Cc1c[nH]c2ccccc12)NC(=O)[C@H](Cc1c[nH]cn1)NC(=O)[C@H](CCC(N)=O)NC(=O)CNC(=O)COCCOCCNC(=O)COCCOCCNC(=O)CC[C@H](NC(=O)CC[C@H](NC(=O)CCCCCCCCCCCCCCCCCCC(=O)O)C(=O)O)C(=O)O)C(C)C)C(N)=O
B7: Peptide 253 (peptide)
peptide: {C20 diacid}-[γGlu][γGlu][AEEA][AEEA]RRH[Trp(7-Me)]AV[βAla]HL[Nle]-NH2
SMILES: CCCC[C@H](NC(=O)[C@H](CC(C)C)NC(=O)[C@H](Cc1c[nH]cn1)NC(=O)CCNC(=O)[C@@H](NC(=O)[C@H](C)NC(=O)[C@H](Cc1c[nH]c2c(C)cccc12)NC(=O)[C@H](Cc1c[nH]cn1)NC(=O)[C@H](CCCNC(=N)N)NC(=O)[C@H](CCCNC(=N)N)NC(=O)COCCOCCNC(=O)COCCOCCNC(=O)CC[C@H](NC(=O)CC[C@H](NC(=O)CCCCCCCCCCCCCCCCCCC(=O)O)C(=O)O)C(=O)O)C(C)C)C(N)=O
B8: Peptide 255 (peptide)
peptide: {C20 diacid}-[γGlu]E[AEEA][AEEA]SGEH[Trp(7-Me)]AV[βAla]HL[Nle]-NH2
SMILES: CCCC[C@H](NC(=O)[C@H](CC(C)C)NC(=O)[C@H](Cc1c[nH]cn1)NC(=O)CCNC(=O)[C@@H](NC(=O)[C@H](C)NC(=O)[C@H](Cc1c[nH]c2c(C)cccc12)NC(=O)[C@H](Cc1c[nH]cn1)NC(=O)[C@H](CCC(=O)O)NC(=O)CNC(=O)[C@H](CO)NC(=O)COCCOCCNC(=O)COCCOCCNC(=O)[C@H](CCC(=O)O)NC(=O)CC[C@H](NC(=O)CCCCCCCCCCCCCCCCCCC(=O)O)C(=O)O)C(C)C)C(N)=O
B9: Peptide 15 (peptide)
peptide: Palmitoyl-[d(γGlu)][AEEA][AEEA]GNHWAV[dA]HL[Nle][Sar]-NH2
SMILES: CCCCCCCCCCCCCCCC(=O)N[C@H](CCC(=O)NCCOCCOCC(=O)NCCOCCOCC(=O)NCC(=O)N[C@@H](CC(N)=O)C(=O)N[C@@H](Cc1c[nH]cn1)C(=O)N[C@@H](Cc1c[nH]c2ccccc12)C(=O)N[C@@H](C)C(=O)N[C@H](C(=O)N[C@H](C)C(=O)N[C@@H](Cc1c[nH]cn1)C(=O)N[C@@H](CC(C)C)C(=O)N[C@@H](CCCC)C(=O)N(C)CC(N)=O)C(C)C)C(=O)O
B10: Peptide 252 (peptide)
peptide: {C20 diacid}-[γGlu][γGlu][AEEA][AEEA]EGRH[Trp(7-Me)]AV[βAla]HL[Nle]-NH2
SMILES: CCCC[C@H](NC(=O)[C@H](CC(C)C)NC(=O)[C@H](Cc1c[nH]cn1)NC(=O)CCNC(=O)[C@@H](NC(=O)[C@H](C)NC(=O)[C@H](Cc1c[nH]c2c(C)cccc12)NC(=O)[C@H](Cc1c[nH]cn1)NC(=O)[C@H](CCCNC(=N)N)NC(=O)CNC(=O)[C@H](CCC(=O)O)NC(=O)COCCOCCNC(=O)COCCOCCNC(=O)CC[C@H](NC(=O)CC[C@H](NC(=O)CCCCCCCCCCCCCCCCCCC(=O)O)C(=O)O)C(=O)O)C(C)C)C(N)=O
B11: Peptide 254 (peptide)
peptide: {C20 diacid}-[γGlu][γGlu][AEEA][AEEA]RGRH[Trp(7-Me)]AV[βAla]HL[Nle]-NH2
SMILES: CCCC[C@H](NC(=O)[C@H](CC(C)C)NC(=O)[C@H](Cc1c[nH]cn1)NC(=O)CCNC(=O)[C@@H](NC(=O)[C@H](C)NC(=O)[C@H](Cc1c[nH]c2c(C)cccc12)NC(=O)[C@H](Cc1c[nH]cn1)NC(=O)[C@H](CCCNC(=N)N)NC(=O)CNC(=O)[C@H](CCCNC(=N)N)NC(=O)COCCOCCNC(=O)COCCOCCNC(=O)CC[C@H](NC(=O)CC[C@H](NC(=O)CCCCCCCCCCCCCCCCCCC(=O)O)C(=O)O)C(=O)O)C(C)C)C(N)=O
B12: Peptide 256 (peptide)
peptide: {C20 diacid}-[γGlu]E[AEEA][AEEA]SGRH[Trp(7-Me)]AV[βAla]HL[Nle]-NH2
SMILES: CCCC[C@H](NC(=O)[C@H](CC(C)C)NC(=O)[C@H](Cc1c[nH]cn1)NC(=O)CCNC(=O)[C@@H](NC(=O)[C@H](C)NC(=O)[C@H](Cc1c[nH]c2c(C)cccc12)NC(=O)[C@H](Cc1c[nH]cn1)NC(=O)[C@H](CCCNC(=N)N)NC(=O)CNC(=O)[C@H](CO)NC(=O)COCCOCCNC(=O)COCCOCCNC(=O)[C@H](CCC(=O)O)NC(=O)CC[C@H](NC(=O)CCCCCCCCCCCCCCCCCCC(=O)O)C(=O)O)C(C)C)C(N)=O

These binders were tested against human GRP receptor (human, UniProt P30550 1-384) (assay: cell-based or functional assay).
human GRP receptor, sequence (P30550 whole entry): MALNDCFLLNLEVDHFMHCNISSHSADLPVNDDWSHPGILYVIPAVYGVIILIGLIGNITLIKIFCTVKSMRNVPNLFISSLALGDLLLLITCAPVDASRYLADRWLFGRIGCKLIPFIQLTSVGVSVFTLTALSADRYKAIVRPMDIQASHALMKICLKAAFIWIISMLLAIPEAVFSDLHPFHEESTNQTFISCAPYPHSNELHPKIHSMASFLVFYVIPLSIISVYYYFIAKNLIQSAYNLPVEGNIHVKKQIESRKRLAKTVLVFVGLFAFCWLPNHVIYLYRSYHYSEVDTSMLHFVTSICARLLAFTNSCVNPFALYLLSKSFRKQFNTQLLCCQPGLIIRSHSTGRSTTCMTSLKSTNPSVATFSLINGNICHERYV

hIP1 GRPR EC50	Binder
10.5 nM	B1
2.7 nM	{C20 diacid}-[γGlu][AEEA][AEEA]GQH[Trp(7-Me)]AV[BAIBA]HL[Nle]-NH2 [Peptide 263]
12.5 nM	B2
1.8 nM	{C20 diacid}-[γGlu][γGlu][AEEA][AEEA]GEH[Trp(7-Me)]AV[BABA]HL[Nle]-NH2 [Peptide 247]
7.4 nM	B3
8.2 nM	{C20 diacid}-[γGlu][γGlu][AEEA][AEEA]GQH[Trp(7-Me)]AV[BABA]HL[Nle]-NH2 [Peptide 259]
11 nM	B4
5.8 nM	B5
4.4 nM	B6
3.7 nM	B7
6.9 nM	B8
4 nM	{C20 diacid}-[γGlu][AEEA][AEEA]G[Dap](2CE‑PEG‑TMEA)HWAV[βAla]HL[Nle]-NH2 (reading uncertain) [Peptide 262]
7.7 nM	{C20 diacid}-[γGlu][AEEA][AEEA]GQHWAV[βAla]HL[Hse(Me)]-NH2 [Peptide 265]
6 nM	{C20 diacid}-[γGlu][γGlu][AEEA][AEEA]GNH[Trp(7-Me)]AV[BABA]HL[Nle]-NH2 [Peptide 258]
1.4 nM	B9
7.5 nM	B10
3.7 nM	B11
8.6 nM	{C20 diacid}-[γGlu][AEEA][AEEA]GNH[Trp(7-Me)]AV[3A3MBA]HL[Nle]-NH2 [Peptide 264]
4 nM	{C20 diacid}-[γGlu][AEEA][AEEA]G[Dap](5CTMPA)HWAV[βAla]HL[Nle]-NH2 (reading uncertain) [Peptide 261]
3.7 nM	B12
